# Results published in patent US20040077828A1 (US Dept. of Health and Human Services, published 2004).
# Residue numbers refer to the chain shown, from its start. Where no end group is shown, it is not given here.
# B1: B-B9 M13 phage (peptide linked to gene III coat protein) (other)
# chain: LVDGRWLYNPHH
# modifications: not fully specified
# notes: the text gives 27; also called B-B9 phage; not shown: M13 phage gene III coat protein
# B2: recombinant human secreted Frizzled-related protein-1 (sFRP-1) (other)
# chain: SEYDYVSFQSDIGPYQSGRFYTKPPQCVDIPADLRLCHNVGYKKMVLPNLLEHETMAEVKQQASSWVPLLNKNCHAGTQVFLCSLFAPVCLDRPIYPCRWLCEAVRDSCEPVMQFFGFYWPEMLKCDKFPEGDVCIAMTPPNATEASKPQGTTVCPPCDNELKSEAIIEHLCASEFALRMKIKEVKKENGDKKIVPKKKKPLKLGPIKKKDLKKLVLYLKNGADCPCHQLDNLSHHFLIMGRKVKSQYLLTAIHKWDKKNKEFKNFMKKMKNHECPTFQSVFK
# notes: also called full-length sFRP-1
# B3: recombinant soluble RANKL (PeproTech) (ligand)
# chain: IRAEKAMVDGSWLDLAKRSKLEAQPFAHLTINATDIPSGSHKVSLSSWYHDRGWAKISNMTFSNGKLIVNQDGFYYLYANICFRHHETSGDLATEYLQLMVYVTKTSIKIPSSHTLMKGGSTKYWSGNSEFHFYSINVGGFFKLRSGEEISIEVSNPSLLDPDQDATYFGAFKVRDID
# notes: Reagent of the ELISA assays; also called sRANKL
# B4: ΔCRD-H/M (other)
# single chain: EYDYVSFQSDIGPYQSGRFYTKPPQIAMTPPNATEASKPQGTTVCPPCDNELKSEAIIEHLCASEFALRMKIKEVKKENGDKKIVPKKKKPLKLGPIKKKDLKKLVLYLKNGADCPCHQLDNLSHHFLIMGRKVKSQYLLTAIHKWDKKNKEFKNFMKKMKNHECPTFQSVFKQAYVEQKLISEEDLNSAVDHHHHHH
# notes: the sheet prints H/M, the text M/H; also called human sFRP-ΔCRD-M/H; sFRP-1 derivative lacking the CRD
# B5: A-E4-expressing M13 phage (peptide linked to gene III coat protein) (other)
# chain: VVDGRWVQGLED
# modifications: not fully specified
# notes: Printed as VVDGRWVQGLED; also called A-E4 phage; not shown: M13 phage gene III coat protein
# B6: A-C2-expressing M13 phage (peptide linked to gene III coat protein) (other)
# chain: QGTLVDGRWLQL
# modifications: not fully specified
# notes: also called A-C2 phage; not shown: M13 phage gene III coat protein
# What was measured:
# [1] = molecular target: B2; test: phage ELISA, sFRP-1-coated against BSA-coated wells
# Protocol: Amplified phage recovered from bacterial broth after this first enrichment step were subjected to two more rounds of panning in wells coated with sFRP-1 as described in the previous paragraph, except that the phage were incubated for only 2 hours and 1 hour in the second and third panning steps, respectively. After the third round of panning, phage obtained from the sFRP-1-coated well were titered and seeded on a lawn of bacteria to permit isolation of phage from 200 separate colonies. Bacteria from each of these colonies were grown in broth, pelleted by centrifugation and phage retrieved in the supernatant. Each of these phage supernatants was tested for binding to sFRP-1-coated ELISA wells versus wells only coated with the BSA blocking solution. Phage were detected in this assay with primary antibody directed against phage coat protein (Pharmacia Biotech, Uppsala, Sweden, #27-9411-01) and standard detection reagents.
# To identify peptide sequences that bind sFRP-1, ˜25×10⁹ phages from a library containing a diverse repertoire of twelve-amino acid residue segments linked to the gene III coat protein of M13 phage were screened. After three successive rounds of panning for phage that bound to ELISA wells preincubated with sFRP-1, the phage preparation selected for its ability to bind sFRP-1 was titered and then plated on a lawn of bacteria. Phage from 200 separate colonies of lysed bacteria were picked, grown in bacterial broth overnight, recovered in supernatant, and tested for their ability to bind preferentially to sFRP-1 versus BSA in an ELISA. Phage that bound at least five times more avidly to sFRP-1 than BSA-coated wells were subjected to nucleotide sequence analysis to determine the identity of the peptide sequence responsible for this binding specificity.
# [2] = molecular target: T1, alkaline phosphatase itself (UniProt P00634 22-471 = phosphatase, limits assumed); test: ELISA, sFRP-1-coated wells against BSA wells
# T1 construct: Control for the peptide/AP fusions; also called AP
# T1 sequence (P00634 22-471 limits assumed): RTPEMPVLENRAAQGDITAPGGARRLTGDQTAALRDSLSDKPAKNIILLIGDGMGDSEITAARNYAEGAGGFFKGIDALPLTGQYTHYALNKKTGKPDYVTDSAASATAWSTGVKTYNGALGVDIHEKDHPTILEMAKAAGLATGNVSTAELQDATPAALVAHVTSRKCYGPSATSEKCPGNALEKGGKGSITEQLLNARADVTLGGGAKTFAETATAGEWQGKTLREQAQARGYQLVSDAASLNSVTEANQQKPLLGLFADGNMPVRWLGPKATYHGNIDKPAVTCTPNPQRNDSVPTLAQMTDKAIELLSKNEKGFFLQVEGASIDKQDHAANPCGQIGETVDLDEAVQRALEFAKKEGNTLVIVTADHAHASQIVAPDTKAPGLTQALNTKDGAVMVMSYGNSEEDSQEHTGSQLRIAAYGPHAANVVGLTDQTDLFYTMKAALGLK
# [3] = molecular target: B2; test: ELISA: serial dilutions of soluble RANKL on sFRP-1-coated, BSA-blocked wells; detection with RANKL antibody, AP-coupled secondary antibody and pNPP
# Protocol: (§1) ELISA experiments were generally performed as previously described (Uren et al., J. Biol. Chem. 275:4374-4382, 2000), with modifications depending on the sFRP binding partner to be tested. Typically, wells were coated with 0.5 or 1 μg of sFRP-1, blocked with BSA (0.2%, 1%, or 4%) and then incubated with putative binding partner overnight at room temperature. When investigating the binding of peptide/AP chimeras, after aspiration of bacterial broths, wells were washed and incubated with p-nitrophenolphosphate (pNPP). Color development was determined at 405 nm with an ELISA reader. For competition experiments, soluble peptides were preincubated with peptide/AP chimeras in bacterial broth for 30 min at room temperature prior to transfer into ELISA wells coated with sFRP-1 or BSA. When testing RANKL binding to sFRP-1, serial dilutions of soluble RANKL were assayed in replicate. Following overnight incubation at room temperature, RANKL solutions were aspirated and bound RANKL was detected by sequential incubations with primary antibody to RANKL, secondary antibody coupled with AP and pNPP. Similar experimental designs were employed when other TNFα family members were examined for binding to sFRPs, and when sFRP-1 derivatives or sFRP-2 were the binding targets for RANKL.
# (§2) The possibility that sFRP-1 (SEQ ID NO: 3) and RANKL interact directly with each other was tested using an ELISA assay. […]
# bovine serum albumin = molecular target: T2, bovine serum albumin (bovine, UniProt P02769 25-607); test: ELISA: serial dilutions of soluble RANKL on wells treated with BSA only; detection with RANKL antibody, AP-coupled secondary antibody and pNPP
# T2 construct: Control coat; also called BSA
# T2 sequence (P02769 25-607 limits assumed): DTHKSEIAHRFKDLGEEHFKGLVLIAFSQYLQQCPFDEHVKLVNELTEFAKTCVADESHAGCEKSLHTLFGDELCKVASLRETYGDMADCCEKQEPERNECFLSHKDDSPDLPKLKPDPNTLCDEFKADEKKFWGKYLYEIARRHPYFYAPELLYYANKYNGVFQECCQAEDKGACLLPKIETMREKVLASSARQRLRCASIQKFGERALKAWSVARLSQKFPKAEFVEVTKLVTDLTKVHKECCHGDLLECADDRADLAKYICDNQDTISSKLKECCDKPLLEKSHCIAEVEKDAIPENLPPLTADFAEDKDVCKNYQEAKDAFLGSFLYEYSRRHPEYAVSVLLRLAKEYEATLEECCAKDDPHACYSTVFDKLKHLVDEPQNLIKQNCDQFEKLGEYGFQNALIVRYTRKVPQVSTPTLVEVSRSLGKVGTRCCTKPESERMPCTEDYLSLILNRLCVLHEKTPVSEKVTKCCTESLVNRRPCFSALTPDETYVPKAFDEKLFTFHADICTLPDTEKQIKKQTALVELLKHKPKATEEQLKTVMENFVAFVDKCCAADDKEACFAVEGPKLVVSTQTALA
# Protocol: as §1, §2
# [4] = molecular target: B3; test: ELISA: wells coated with sFRP-1 or derivative, incubated with soluble RANKL, bound RANKL detected; triplicates
# Protocol: FIG. 12 is a graph of the binding avidity of several sFRP-1 deletion mutants for RANKL in ELISA experiments. Wells were coated either with full-length sFRP-1 or with any one of a set of epitope-tagged sFRP-1 deletion mutants (Uren et al., J Biol Chem 275:4374-4382, 2000) or BSA control, and then sequentially incubated with soluble RANKL and reagents to detect RANKL bound to the wells. The results shown are the mean +/−S.D. of triplicate measurements from a representative experiment.
# ELISA experiments were generally performed as previously described (Uren et al., J. Biol. Chem. 275:4374-4382, 2000), with modifications depending on the sFRP binding partner to be tested. Typically, wells were coated with 0.5 or 1 μg of sFRP-1, blocked with BSA (0.2%, 1%, or 4%) and then incubated with putative binding partner overnight at room temperature. When investigating the binding of peptide/AP chimeras, after aspiration of bacterial broths, wells were washed and incubated with p-nitrophenolphosphate (pNPP). Color development was determined at 405 nm with an ELISA reader. […] Following overnight incubation at room temperature, RANKL solutions were aspirated and bound RANKL was detected by sequential incubations with primary antibody to RANKL, secondary antibody coupled with AP and pNPP. […]
# [5] = molecular target: B2; test: Isothermal titration calorimetry: A-C2 peptide (200 µM in PBS) injected into sFRP-1 (10 µM in PBS)
# Protocol: (§3) ITC experiments were performed with a VP-ITC MicroCalorimeter MicroCal, LLC, Northhampton, Mass.) according to the manufacturer's User Manual. In brief, 6 μl aliquots of A-C2 (200 μM, dissolved in PBS) were injected at regular intervals into a chamber containing sFRP-1 (10 μM, also in PBS). Increases in temperature of the chamber resulting from the binding of A-C2 and sFRP-1 were determined as a measure of the heat produced by the binding reaction. Several parameters, included enthalpy and dissociation constant, were calculated from these measurements. This technique is commonly used to quantify the thermodynamic properties of binding interactions between proteins and peptides.
# (§4) Binding was evident, as heat was generated when aliquots of AC2 solution were added to a chamber containing sFRP-1 dissolved in PBS. By contrast, no heat was produced when AC2 was added to a chamber containing only PBS.
# [6] = molecular target: B2; test: isothermal titration calorimetry, A-C2 (200 uM) injected into sFRP-1 (10 uM) in PBS
# Protocol: as §3, §4
# [7] = molecular target: B2; test: Isothermal titration calorimetry: A-C2 peptide (200 µM in PBS) injected into sFRP-1 (10 µM in PBS); no unit printed in the box
# Protocol: as §3, §4
# [8] = molecular target: T3, naturally occurring sFRP-1 present in the cultures; test: cell-based or functional assay
# T3 sequence (Q8C4U3 32-314, species assumed, looked up): B2 chain with P14S, A32V, A76M, A143T, D211E, K214R, Y218F, H236N, K269R
binder,measurement,setting,value
B1,Specificity (sFRP-1/BSA),[1],5 ratio of binding to sFRP-1 wells over BSA wells
B2,binding result,[2],no binding
B3,EC50 (read off the curve),[3],~1 µg/mL
same,binding result,bovine serum albumin,no binding (tested: 10 ug/ml)
B4,binding result,[4],no binding
B5,Specificity (sFRP-1/BSA),[1],10 ratio of binding to sFRP-1 wells over BSA wells
B6,Specificity (sFRP-1/BSA),[1],10 ratio of binding to sFRP-1 wells over BSA wells
QGTLVDGRWLQL (also called AC2 peptide) [A-C2 synthetic 12-mer peptide],N,[5],1.14
same,Kd,[6],3.9 µM
same,ΔH,[7],-3620
same,ΔS,[7],12.6
same,"TRAP+ multinucleated cells, osteoblast and adult spleen cell co-cultures",[8],10 fold increase
